From patent CN111732654A (WUHAN INST OF BIOLOGICAL PRODUCTS CO LTD, dated 2020)

Experiments:
[1] = biological target: SARS-CoV-2刺突S1-His重组蛋白 (Sino公司，货号:40591-V08H) (SARS-CoV-2 (2019-nCoV), UniProt P0DTC2 16-685)
[2] = biological target: SARS-CoV-2刺突蛋白S1的RBD结构域重组蛋白 (Sino公司，货号40592-V05H) (SARS-CoV-2 (2019-nCoV), UniProt P0DTC2 319-541)

B1: 单克隆抗体1E10 (人源抗SARS-CoV-2抗体1E10) (antibody, V domains shown)
VH: EVQLVQSGAEVKKPGSSVKVSCKASGGTFSSYAISWVRQAPGQGLEWMGRIIPILGIANYAQKFQGRVTITADKSTSTAYMELSSLRSEDTAVYYCAREVSDFDWLYRSHYGMDVWGQGTTVTVSS
VL: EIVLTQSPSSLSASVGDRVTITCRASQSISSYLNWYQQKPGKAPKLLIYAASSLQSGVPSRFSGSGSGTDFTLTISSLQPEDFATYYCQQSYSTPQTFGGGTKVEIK
EC50 [1]: 0.029 nM | EC50 [2]: 0.044 nM
